Experimental data as given in patent USRE49099 (Bayer, dated 2022).
Substitutions are numbered along the chain they refer to.

B1: Hu1573-1 (antibody, V domains shown)
VH: EVQLVESGGGLVQPGGSLRLSCAASGFTFSNYYLNWVRQAPGKGLEWVGDIRLKSNNYEKHYAESVKGRFTISRDDSKNSLYLQMNSLKTEDTAVYYCAREGDYFDYWGQGTTVTVSS
VL: DIVLTQTPLSLSVTPGQPASISCRASESVDSFGATFMHWYLQKPGQPPQLLIYLASNLESGVPDRFSGSGSRTDFTLKISRVEAEDVGVYYCQQNNEDPYTFGQGTKLEIKR
notes: Humanized IgG, human gamma 1 / kappa constant regions by vectors pCP-hCg1 and pCP-hck; also called H1573VH.1 + H1573Vk.2C
B2: Hu1573-10 (antibody, V domains shown)
VH: B1 VH with N79S, A99I
VL: B1 VL with R72G
notes: Humanized IgG, human gamma 1 / kappa constant regions by vectors pCP-hCg1 and pCP-hck; also called H1573VH.1D + H1573Vk.2A
B3: Hu1573-8 (antibody, V domains shown)
VH: B1 VH with G49A, A99I
VL: B1 VL with L4M
notes: Humanized IgG, human gamma 1 / kappa constant regions by vectors pCP-hCg1 and pCP-hck; also called H1573VH.1C + H1573Vk.2B
B4: Hu1573-5 (antibody, V domains shown)
VH: B1 VH with L81V, A99I
VL: B1 VL with L4M
notes: Humanized IgG, human gamma 1 / kappa constant regions by vectors pCP-hCg1 and pCP-hck; also called H1573VH.1B + H1573Vk.2B
B5: Hu1573-2 (antibody, V domains shown)
VH: B1 VH with A99I
VL: B1 VL
notes: Humanized IgG, human gamma 1 / kappa constant regions by vectors pCP-hCg1 and pCP-hck; also called H1573VH.1A + H1573Vk.2C

Molecular target: T1, human activated protein C (human, UniProt P04070 43-197; P04070 212-461)
T1 construct: also called human aPC; human APC
Test: ELISA, coated antigen

In order of falling EC50:
1. B3  0.697 nM
2. B2  0.575 nM
3. B4  0.552 nM
4. B1  0.369 nM
5. B5  0.265 nM

Molecular target: T2, cyno activated protein C (cyno (monkey))
T2 construct: also called cyno aPC; cyno APC
Test: ELISA, coated antigen

In order of rising EC50:
1. B2  0.68 nM
2. B3  0.713 nM
3. B5  0.774 nM
4. B1  0.865 nM
5. B4  1.03 nM

Molecular target: T3, human Protein C (human, UniProt P04070 43-461)
T3 construct: Zymogen used as negative control in the ELISA; also called human PC; hPC
Test: ELISA, coated antigen

B1: no binding (tested: 20 nM).
B2: no binding (tested: 20 nM).
B3: no binding (tested: 20 nM).
B4: no binding (tested: 20 nM).
B5: no binding (tested: 20 nM).

Molecular target: T1, human activated protein C
Test: SPR (Biacore)

B1 and B2 cannot be ordered by Kd: under 5 nM for the first, under 5 nM for the second.

B3 and B4 cannot be ordered by Kd: under 5 nM for the first, under 5 nM for the second.

With B5 the Kd was under 5 nM.

Molecular target: T1, human activated protein C
Test: SPR (Biacore), 1:1 binding model

In order of falling Kd:
1. B5  4.61 nM
2. B2  4.38 nM
3. B4  4.16 nM
4. B3  4.03 nM
5. B1  3.8 nM

In order of falling koff:
1. B4  0.0064 s⁻¹
2. B2  0.00636 s⁻¹
3. B5  0.00624 s⁻¹
4. B3  0.006 s⁻¹
5. B1  0.00554 s⁻¹

In order of rising kon:
1. B5  1.35e+06 M⁻¹ s⁻¹
2. B2  1.45e+06 M⁻¹ s⁻¹
3. B1  1.46e+06 M⁻¹ s⁻¹
4. B3  1.49e+06 M⁻¹ s⁻¹
5. B4  1.54e+06 M⁻¹ s⁻¹

Molecular target: T2, cyno activated protein C
Test: SPR (Biacore), 1:1 binding model

In order of rising Kd:
1. B2  11 nM
2. B3  12.3 nM
3. B4  14.5 nM
4. B5  16.4 nM
5. B1  16.7 nM

In order of falling koff:
1. B2  0.00479 s⁻¹
2. B3  0.00447 s⁻¹
3. B1  0.00402 s⁻¹
4. B5  0.00384 s⁻¹
5. B4  0.00293 s⁻¹

In order of rising kon:
1. B4  202000 M⁻¹ s⁻¹
2. B5  235000 M⁻¹ s⁻¹
3. B1  240000 M⁻¹ s⁻¹
4. B3  363000 M⁻¹ s⁻¹
5. B2  434000 M⁻¹ s⁻¹
